Measurements reported in patent US7078382 (dated 2006).

How the values were obtained:
Flt-IgG = target: T1, Flt-IgG (human, UniProt P17948 27-758, limits assumed); assay: competition ELISA, biotinylated native VEGF as tracer, Flt-IgG captured by anti-human Fc
T1 construct: Only described as 'a chimeric Flt-human Fc molecule'; captured by rabbit F(ab')2 to human IgG Fc; also called chimeric Flt-human Fc molecule; not shown: human IgG Fc

[1] = target: KDR receptor on human umbilical vein endothelial cells (HUVEC) (human, UniProt P35968 20-1356); assay: cell-based or functional assay
KDR receptor on human umbilical vein endothelial cells (HUVEC), sequence (P35968 20-1356): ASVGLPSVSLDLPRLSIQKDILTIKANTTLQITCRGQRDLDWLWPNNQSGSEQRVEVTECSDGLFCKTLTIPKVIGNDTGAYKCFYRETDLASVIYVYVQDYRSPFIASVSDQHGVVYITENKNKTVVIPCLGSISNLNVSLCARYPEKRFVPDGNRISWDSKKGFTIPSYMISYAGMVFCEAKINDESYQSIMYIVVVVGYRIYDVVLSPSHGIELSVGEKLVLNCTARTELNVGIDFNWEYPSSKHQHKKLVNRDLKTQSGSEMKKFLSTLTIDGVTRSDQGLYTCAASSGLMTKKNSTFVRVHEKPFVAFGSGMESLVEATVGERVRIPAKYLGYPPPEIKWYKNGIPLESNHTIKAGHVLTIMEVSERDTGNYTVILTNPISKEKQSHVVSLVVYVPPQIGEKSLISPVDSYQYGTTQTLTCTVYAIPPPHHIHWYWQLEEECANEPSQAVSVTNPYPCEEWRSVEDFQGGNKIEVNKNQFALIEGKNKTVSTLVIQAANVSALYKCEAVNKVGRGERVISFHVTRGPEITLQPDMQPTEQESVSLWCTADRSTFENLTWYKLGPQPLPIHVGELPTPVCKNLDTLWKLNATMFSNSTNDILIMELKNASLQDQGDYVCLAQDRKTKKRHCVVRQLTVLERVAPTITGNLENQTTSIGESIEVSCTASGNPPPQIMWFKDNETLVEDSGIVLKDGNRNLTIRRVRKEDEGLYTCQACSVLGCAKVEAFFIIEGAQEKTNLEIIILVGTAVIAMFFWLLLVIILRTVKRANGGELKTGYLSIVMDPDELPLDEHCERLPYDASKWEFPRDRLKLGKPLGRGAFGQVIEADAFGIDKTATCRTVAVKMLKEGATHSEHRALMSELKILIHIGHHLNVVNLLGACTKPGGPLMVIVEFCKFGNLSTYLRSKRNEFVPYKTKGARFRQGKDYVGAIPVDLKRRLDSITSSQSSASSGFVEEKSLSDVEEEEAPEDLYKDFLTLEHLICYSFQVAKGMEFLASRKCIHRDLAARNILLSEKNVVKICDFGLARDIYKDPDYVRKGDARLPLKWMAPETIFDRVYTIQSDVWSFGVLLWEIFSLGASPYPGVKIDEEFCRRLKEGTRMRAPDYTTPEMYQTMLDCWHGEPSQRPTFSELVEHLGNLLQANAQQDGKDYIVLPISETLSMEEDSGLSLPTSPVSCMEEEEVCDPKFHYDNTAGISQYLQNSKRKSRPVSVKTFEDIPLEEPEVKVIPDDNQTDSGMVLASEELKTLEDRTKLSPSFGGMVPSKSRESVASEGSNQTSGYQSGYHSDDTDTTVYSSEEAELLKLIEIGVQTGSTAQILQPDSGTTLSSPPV

KDR (1-3) = target: T2, KDR (1-3) (UniProt P35968 20-327, limits assumed); assay: competition ELISA, biotinylated native VEGF (8-109) as tracer, KDR (1-3) captured by mAb MAKD5
T2 construct: domain: KDR (1-3); Soluble KDR (1-3) at 1 ug/ml, captured on the plate by anti-KDR monoclonal antibody MAKD5; also called KDR (1-3) monomer
T2 sequence (P35968 20-327 limits assumed): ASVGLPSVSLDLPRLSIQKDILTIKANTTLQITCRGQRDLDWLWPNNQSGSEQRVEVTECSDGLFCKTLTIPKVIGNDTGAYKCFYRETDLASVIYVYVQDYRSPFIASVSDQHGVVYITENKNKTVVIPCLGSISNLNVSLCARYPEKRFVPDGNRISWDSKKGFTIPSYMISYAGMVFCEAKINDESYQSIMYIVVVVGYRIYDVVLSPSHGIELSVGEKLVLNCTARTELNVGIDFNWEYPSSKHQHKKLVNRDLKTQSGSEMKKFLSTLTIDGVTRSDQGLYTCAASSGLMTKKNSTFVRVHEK

[2] = target: KDR receptor with a gD tag at the N-terminus, on CHO cells (UniProt P35968 20-1356); assay: cell-based or functional assay
[3] = target: KDR receptor (RIA of Example 11) (UniProt P35968 20-764, limits assumed); assay: RIA essentially as in Muller et al. 1997
KDR receptor (RIA of Example 11), sequence (P35968 20-764 limits assumed): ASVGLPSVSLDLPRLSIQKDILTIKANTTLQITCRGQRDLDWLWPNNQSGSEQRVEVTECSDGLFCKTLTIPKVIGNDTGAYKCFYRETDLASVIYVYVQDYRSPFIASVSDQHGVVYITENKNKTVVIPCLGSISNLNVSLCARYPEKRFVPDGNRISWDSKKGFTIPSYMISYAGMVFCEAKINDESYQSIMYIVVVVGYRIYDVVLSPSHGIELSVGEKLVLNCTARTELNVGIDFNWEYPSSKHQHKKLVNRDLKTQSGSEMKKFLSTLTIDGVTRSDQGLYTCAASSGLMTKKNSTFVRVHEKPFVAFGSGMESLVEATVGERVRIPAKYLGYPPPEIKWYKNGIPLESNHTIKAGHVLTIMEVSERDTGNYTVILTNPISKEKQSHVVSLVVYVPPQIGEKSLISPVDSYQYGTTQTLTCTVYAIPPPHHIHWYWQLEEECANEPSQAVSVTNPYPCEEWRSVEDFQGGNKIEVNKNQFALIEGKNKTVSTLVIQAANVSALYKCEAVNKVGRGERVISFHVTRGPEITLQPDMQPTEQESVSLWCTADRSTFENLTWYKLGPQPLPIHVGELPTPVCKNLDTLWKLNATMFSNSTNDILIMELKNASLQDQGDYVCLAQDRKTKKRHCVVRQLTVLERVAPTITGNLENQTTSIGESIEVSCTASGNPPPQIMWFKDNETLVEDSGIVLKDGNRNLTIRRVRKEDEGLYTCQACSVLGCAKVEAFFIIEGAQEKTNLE

[4] = target: FLT-1 receptor (RIA of Example 11) (UniProt P17948 27-758, limits assumed); assay: RIA essentially as in Muller et al. 1997
FLT-1 receptor (RIA of Example 11), sequence (P17948 27-758 limits assumed): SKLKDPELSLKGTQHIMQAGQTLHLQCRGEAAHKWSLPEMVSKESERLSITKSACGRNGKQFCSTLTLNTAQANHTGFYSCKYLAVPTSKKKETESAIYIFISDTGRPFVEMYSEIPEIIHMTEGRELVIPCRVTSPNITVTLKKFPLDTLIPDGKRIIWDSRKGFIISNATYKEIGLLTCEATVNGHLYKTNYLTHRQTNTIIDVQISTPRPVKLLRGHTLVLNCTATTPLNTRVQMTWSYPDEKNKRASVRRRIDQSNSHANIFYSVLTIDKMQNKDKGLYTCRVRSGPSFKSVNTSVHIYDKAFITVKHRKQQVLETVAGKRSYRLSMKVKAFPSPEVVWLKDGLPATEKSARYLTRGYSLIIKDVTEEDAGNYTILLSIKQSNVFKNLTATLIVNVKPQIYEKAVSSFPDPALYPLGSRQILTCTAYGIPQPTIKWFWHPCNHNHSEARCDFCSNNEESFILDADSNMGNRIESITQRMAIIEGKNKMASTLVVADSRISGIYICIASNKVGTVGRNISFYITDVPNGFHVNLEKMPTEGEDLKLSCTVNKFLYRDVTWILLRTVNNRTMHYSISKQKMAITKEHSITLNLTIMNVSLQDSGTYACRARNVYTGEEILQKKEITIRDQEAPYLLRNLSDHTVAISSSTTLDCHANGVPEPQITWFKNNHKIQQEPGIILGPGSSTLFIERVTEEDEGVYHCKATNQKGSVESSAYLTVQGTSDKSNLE

T1 sequence (P17948 27-758 limits assumed): as above

Binder	IC50 (KDR (1-3))	Relative Binding Affinity (KDR (1-3))	further results
LK-VRB-2f (ligand, also called KDR-full) APMAEGGGQNHHEVVKFMDVYQRSYCHPIETLVDIFQEYPDEIEYIFKPSCVPLMRCGGCCNSEMRECVPTEESNITMQIMRIKPHQGQHIGEMSFLQHNKCECRPKKDRARQENPCGPCSERRKHLFVQDPQTCKCSCKNTDSRCKARQLELNERTCRCDKPRR			IC50 (Flt-IgG): 19 nM; Endothelial Cell Proliferation Activity (HUVEC, 3H-thymidine), concentration [1]: 0.05 nM
LK-VRB-17s (ligand) APMAEGGGQNHHEVVKFEDVLRRSYCHPIETLVDIFQEYPDEIEYIFKPSCVPLMRCGGCCNSEMRECVPTEESNITMQIMRIKPHQGQHIGEMSFLQHNKCECRPKKD	3 nM	3 fold of native VEGF (8-109)	
LK-VRB-18s (ligand) APMAEGGGQNHHEVVKFEDVLQRSSCHPIETLVDIFQEYPDEIEYIFKPSCVPLMRCGGCCNSEMRECVPTEESNITMQIMRIKPHQGQHIGEMSFLQHNKCECRPKKD	130 nM	130 fold of native VEGF (8-109)	
LK-VRB-2s* (ligand) APMAEGGGQNHHEVVKFMDVYQRSYCHPIETLVDIFQEYPDEIEYIFKPSCVPLMRCGGCCNSEMRECVPTEESNITMQIMRIKPHQGQHIGEMSFLQHNKCECRPKKD			Phosphorylation-Inducing Activity (KIRA), concentration at midpoint [2]: 2 nM; Endothelial Cell Proliferation Activity (HUVEC, 3H-thymidine), concentration [1]: 0.05 nM
LK-VRB-15s (ligand) APMAEGGGQNHHEVVKFMDVLQRSSCHPIETLVDIFQEYPDEIEYIFKPSCVPLMRCGGCCNSEMRECVPTEESNITMQIMRIKPHQGQHIGEMSFLQHNKCECRPKKD	2 nM	2 fold of native VEGF (8-109)	
LK-VRB-21s (ligand) APMAEGGGQNHHEVVKFEDVLRRSSCHPIETLVDIFQEYPDEIEYIFKPSCVPLMRCGGCCNSEGLECVPTEESNITMQIMRIKPHQGQHIGEMSFLQHNKCECRPKKD	3 nM	3 fold of native VEGF (8-109)	
LK-VRB-23s (ligand) APMAEGGGQNHHEVVKFEDVLRRSSCHPIETLVDIFQEYPDEIEYIFKPSCVPLMRCGGCCNDEGRECVPTEESNITMQIMRIKPHQGQHIGEMSFLQHNKCECRPKKD	11 nM	11 fold of native VEGF (8-109)	
LK-VRB-22s (ligand) APMAEGGGQNHHEVVKFEDVLRRSSCHPIETLVDIFQEYPDEIEYIFKPSCVPLMRCGGCCNDEMLECVPTEESNITMQIMRIKPHQGQHIGEMSFLQHNKCECRPKKD	4 nM	4 fold of native VEGF (8-109)	
LK-VRB-25s (ligand) APMAEGGGQNHHEVVKFEDVLRRSSCHPIETLVDIFQEYPDEIEYIFKPSCVPLMRCGGCCNSEGRECVPTEESNITMQIMRIKPHQGQHIGEMSFLQHNKCECRPKKD	4 nM	4 fold of native VEGF (8-109)	
LK-VRB-9s (ligand) APMAEGGGQNHHEVVKFMDVYRRSYCHPIETLVDIFQEYPDEIEYIFKPSCVPLMRCGGCCNSEMRECVPTEESNITMQIMRIKPHQGQHIGEMSFLQHNKCECRPKKD	0.5 nM	0.5 fold of native VEGF (8-109)	Relative Binding Affinity (Flt-IgG): 300 fold of native VEGF (8-109)
LK-VRB-7s* (ligand) APMAEGGGQNHHEVVKFEDVYQRSYCHPIETLVDIFQEYPDEIEYIFKPSCVPLMRCGGCCNSEMRECVPTEESNITMQIMRIKPHQGQHIGEMSFLQHNKCECRPKKD	1 nM	1 fold of native VEGF (8-109)	Relative Binding Affinity (Flt-IgG): > 15000 fold of native VEGF (8-109); Endothelial Cell Proliferation Activity (HUVEC, 3H-thymidine), concentration [1]: 0.5 nM; Endothelial Cell Proliferation Activity (HUVEC, 3H-thymidine), ratio to native VEGF (8-109) [1]: 1 fold of native VEGF (8-109)
LK-VRB-13s (ligand) APMAEGGGQNHHEVVKFEDVYQRSSCHPIETLVDIFQEYPDEIEYIFKPSCVPLMRCGGCCNSEMRECVPTEESNITMQIMRIKPHQGQHIGEMSFLQHNKCECRPKKD	14 nM	14 fold of native VEGF (8-109)	
LK-VRB-20s (ligand) APMAEGGGQNHHEVVKFMDVLRRSSCHPIETLVDIFQEYPDEIEYIFKPSCVPLMRCGGCCNSEMRECVPTEESNITMQIMRIKPHQGQHIGEMSFLQHNKCECRPKKD	2 nM	2 fold of native VEGF (8-109)	
LK-VRB-14s (ligand) APMAEGGGQNHHEVVKFMDVLRRSYCHPIETLVDIFQEYPDEIEYIFKPSCVPLMRCGGCCNSEMRECVPTEESNITMQIMRIKPHQGQHIGEMSFLQHNKCECRPKKD	0.5 nM	0.5 fold of native VEGF (8-109)	
LK-VRB-16s (ligand) APMAEGGGQNHHEVVKFMDVYRRSSCHPIETLVDIFQEYPDEIEYIFKPSCVPLMRCGGCCNSEMRECVPTEESNITMQIMRIKPHQGQHIGEMSFLQHNKCECRPKKD	0.6 nM	0.6 fold of native VEGF (8-109)	
LK-VRB-4s (ligand) APMAEGGGQNHHEVVKIEDVFERSICHPIETLVDIFQEYPDEIEYIFKPSCVPLMRCGGCCNDEGLECVPTEESNITMQIMRIKPHQGQHIGEMSFLQHNKCECRPKKD	1 nM	1 fold of native VEGF (8-109)	IC50 (Flt-IgG): 100 nM; Relative Binding Affinity (Flt-IgG): 200 fold of native VEGF (8-109); Phosphorylation-Inducing Activity (KIRA), concentration at midpoint [2]: 1 nM; Phosphorylation-Inducing Activity (KIRA), ratio to native VEGF (8-109) [2]: 0.5 fold of native VEGF (8-109)
LK-VRB-24s (ligand) APMAEGGGQNHHEVVKFEDVLRRSSCHPIETLVDIFQEYPDEIEYIFKPSCVPLMRCGGCCNSEMLECVPTEESNITMQIMRIKPHQGQHIGEMSFLQHNKCECRPKKD	10 nM	10 fold of native VEGF (8-109)	
LK-VRB-1s* (ligand) APMAEGGGQNHHEVVKFEDVLRRSSCHPIETLVDIFQEYPDEIEYIFKPSCVPLMRCGGCCNDEGLECVPTEESNITMQIMRIKPHQGQHIGEMSFLQHNKCECRPKKD	1 nM	1 fold of native VEGF (8-109)	IC50 (Flt-IgG): 2700 nM; Relative Binding Affinity (Flt-IgG): 6000 fold of native VEGF (8-109); Relative Binding Affinity [3]: 20 fold of native VEGF 165; Relative Binding Affinity [4]: 14000 fold of native VEGF 165; Phosphorylation-Inducing Activity (KIRA), concentration at midpoint [2]: 1 nM; Phosphorylation-Inducing Activity (KIRA), ratio to native VEGF (8-109) [2]: 0.5 fold of native VEGF (8-109); Endothelial Cell Proliferation Activity (HUVEC, 3H-thymidine), concentration [1]: 0.1 nM; Endothelial Cell Proliferation Activity (HUVEC, 3H-thymidine), ratio to native VEGF (8-109) [1]: 0.2 fold of native VEGF (8-109)
LK-VRB-10s (ligand) APMAEGGGQNHHEVVKFMDVYQRSSCHPIETLVDIFQEYPDEIEYIFKPSCVPLMRCGGCCNSEMRECVPTEESNITMQIMRIKPHQGQHIGEMSFLQHNKCECRPKKD	0.5 nM	0.5 fold of native VEGF (8-109)	
LK-VRB-3s (ligand) APMAEGGGQNHHEVVKIEDVFKRSSCHPIETLVDIFQEYPDEIEYIFKPSCVPLMRCGGCCNDEGLECVPTEESNITMQIMRIKPHQGQHIGEMSFLQHNKCECRPKKD	1 nM	1 fold of native VEGF (8-109)	IC50 (Flt-IgG): 170 nM; Relative Binding Affinity (Flt-IgG): 400 fold of native VEGF (8-109); Phosphorylation-Inducing Activity (KIRA), concentration at midpoint [2]: 2 nM; Phosphorylation-Inducing Activity (KIRA), ratio to native VEGF (8-109) [2]: 1 fold of native VEGF (8-109)
LK-VRB-8s* (ligand) APMAEGGGQNHHEVVKFMDVLQRSYCHPIETLVDIFQEYPDEIEYIFKPSCVPLMRCGGCCNSEMRECVPTEESNITMQIMRIKPHQGQHIGEMSFLQHNKCECRPKKD	0.5 nM	0.5 fold of native VEGF (8-109)	Relative Binding Affinity (Flt-IgG): > 21000 fold of native VEGF (8-109); Endothelial Cell Proliferation Activity (HUVEC, 3H-thymidine), concentration [1]: 0.5 nM; Endothelial Cell Proliferation Activity (HUVEC, 3H-thymidine), ratio to native VEGF (8-109) [1]: 1 fold of native VEGF (8-109)
LK-VRB-12s (ligand) APMAEGGGQNHHEVVKFEDVYRRSYCHPIETLVDIFQEYPDEIEYIFKPSCVPLMRCGGCCNSEMRECVPTEESNITMQIMRIKPHQGQHIGEMSFLQHNKCECRPKKD	0.4 nM	0.4 fold of native VEGF (8-109)	
LK-VRB-11s (ligand) APMAEGGGQNHHEVVKFEDVLQRSYCHPIETLVDIFQEYPDEIEYIFKPSCVPLMRCGGCCNSEMRECVPTEESNITMQIMRIKPHQGQHIGEMSFLQHNKCECRPKKD	2 nM	2 fold of native VEGF (8-109)	
LK-VRB-26s (ligand) APMAEGGGQNHHEVVKFEDVLRRSSCHPIETLVDIFQEYPDEIEYIFKPSCVPLMRCGGCCNDEMRECVPTEESNITMQIMRIKPHQGQHIGEMSFLQHNKCECRPKKD	23 nM	23 fold of native VEGF (8-109)	
native VEGF (8-109) (ligand) GQNHHEVVKFMDVYQRSYCHPIETLVDIFQEYPDEIEYIFKPSCVPLMRCGGCCNDEGLECVPTEESNITMQIMRIKPHQGQHIGEMSFLQHNKCECRPKKD			IC50 (Flt-IgG): 0.42 nM; Phosphorylation-Inducing Activity (KIRA), concentration at midpoint [2]: 2 nM; Endothelial Cell Proliferation Activity (HUVEC, 3H-thymidine), concentration [1]: 0.5 nM
